According to the Human Domainome abundance scans (Beltran et al. 2025):
± gives the uncertainty stated by the source.

B1: Zinc finger homeobox protein 3, residues 2147 to 2202; numbered along this chain, Q15911 (parent)
chain: RPRTRITDDQLRVLRQYFDINNSPSEEQIKEMADKSGLPQKVIKHWFRNTLFKERQ

Variants of: B1
Test: abundance fitness (aPCA) (normalised: wild type 0, dead -1); higher = more abundant; growth selection in yeast, the domain comes from the species named
Details: Homo sapiens

| Variant | abundance fitness |
| --- | --- |
| K35M | -0.216 ± 0.11 |
| K35L | -0.163 ± 0.08 |
| K35T | -0.189 ± 0.091 |
| K35N | -0.138 ± 0.14 |
| K35Y | -0.357 ± 0.12 |
| K35Q | 0.014 ± 0.14 |
| K35F | -0.336 ± 0.14 |
| Q10H | 0.025 ± 0.13 |
| Q10C | -0.381 ± 0.098 |
| Q10P | -0.741 ± 0.094 |
| Q10R | -0.605 ± 0.066 |
| Q10M | -0.27 ± 0.1 |
| Q10F | -0.626 ± 0.14 |
| Q10K | -0.359 ± 0.093 |
| Q10D | -0.308 ± 0.1 |
| Q10E | -0.394 ± 0.08 |
| Q10T | -0.357 ± 0.1 |
| Y17V | -0.153 ± 0.067 |
| Y17L | -0.133 ± 0.067 |
| Y17E | -0.168 ± 0.082 |
| Y17T | -0.369 ± 0.093 |

| Variant | abundance fitness |
| --- | --- |
| Y17M | 0.083 ± 0.081 |
| Y17Q | -0.196 ± 0.095 |
| I20Y | -0.237 ± 0.12 |
| I20H | -0.001 ± 0.19 |
| I20M | 0.02 ± 0.1 |
| I20D | -0.087 ± 0.1 |
| I20P | 0.036 ± 0.089 |
| I20K | -0.081 ± 0.14 |
| I20T | -0.052 ± 0.093 |
| I20V | -0.074 ± 0.069 |
| P24M | -0.5 ± 0.12 |
| P24S | -1 ± 0.095 |
| P24T | -0.585 ± 0.1 |
| P24H | -0.566 ± 0.14 |
| P24I | -0.652 ± 0.16 |
| E27P | -0.078 ± 0.09 |
| E27G | -0.071 ± 0.065 |
| R15Q | -0.045 ± 0.08 |
| R15A | -0.23 ± 0.073 |
| R15L | -0.244 ± 0.066 |
| T4L | -0.11 ± 0.094 |

| Variant | abundance fitness |
| --- | --- |
| T4D | 0.029 ± 0.14 |
| T4M | 0.13 ± 0.12 |
| T4S | -0.191 ± 0.095 |
| T4V | -0.13 ± 0.089 |
| V13C | -0.149 ± 0.075 |
| V13N | -0.227 ± 0.073 |
| V13K | -0.054 ± 0.083 |
| V13W | 0.003 ± 0.096 |
| V13L | 0.055 ± 0.061 |
| V13T | -0.044 ± 0.065 |
| V13H | -0.199 ± 0.069 |
| N21H | -0.01 ± 0.13 |
| N21E | -0.005 ± 0.095 |
| N21K | -0.018 ± 0.1 |
| K41D | -0.054 ± 0.19 |
| K41C | 0.126 ± 0.14 |
| K41S | -0.02 ± 0.11 |
| K41Y | -0.389 ± 0.21 |
| K41E | 0.01 ± 0.11 |
| K30H | -0.161 ± 0.14 |
| K30D | -0.155 ± 0.11 |

| Variant | abundance fitness |
| --- | --- |
| K30P | -0.679 ± 0.14 |
| K30G | -0.188 ± 0.069 |
| K30A | -0.006 ± 0.081 |
| R12H | -0.128 ± 0.12 |
| R12G | -0.067 ± 0.063 |
| R12W | -0.456 ± 0.072 |
| R12A | -0.122 ± 0.069 |
| R12D | -0.21 ± 0.093 |
| R12Y | -0.4 ± 0.11 |
| R12M | 0.077 ± 0.083 |
| M32L | -0.181 ± 0.083 |
| M32C | -0.407 ± 0.12 |
| M32P | -1.15 ± 0.2 |
| M32Q | -0.774 ± 0.12 |
| M32Y | -0.317 ± 0.15 |
| M32K | -1.03 ± 0.16 |
| R3Y | -0.085 ± 0.19 |
| R3N | 0.016 ± 0.17 |
| R3H | 0.172 ± 0.15 |
| R3K | -0.25 ± 0.14 |
